Measurements reported in US20040014649A1 (RIGEL PHARMACEUTICALS, published 2004).

Tests used:
[1] = target: T1, human B-cell associated protein-37 (human BAP-37) (human, UniProt O35129 1-299 (mouse entry), limits assumed); experiment: cell-based or functional assay
[2] = target: T1, human B-cell associated protein-37 …; experiment: cell-based or functional assay; remark: listed apart in the source

T1 sequence (O35129 whole entry): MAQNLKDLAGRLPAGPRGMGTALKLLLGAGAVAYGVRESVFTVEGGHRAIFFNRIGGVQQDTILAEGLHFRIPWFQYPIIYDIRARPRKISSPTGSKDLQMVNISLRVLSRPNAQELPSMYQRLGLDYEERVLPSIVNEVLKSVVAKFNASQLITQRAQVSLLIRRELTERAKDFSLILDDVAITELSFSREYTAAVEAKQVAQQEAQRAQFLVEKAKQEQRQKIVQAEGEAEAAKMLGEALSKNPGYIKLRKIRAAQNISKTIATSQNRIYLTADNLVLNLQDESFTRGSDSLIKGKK

Binder	Reporter Ratio (A5T4 reporter line, IL-4 induced germline epsilon transcription) [1]	endogenous epsilon inhibition ratio (TAQMAN quantitative PCR, +IL-4/+Dox to +IL-4/-Dox) [2]
TGVHVELQINRSIMHYISSP [peptide CL08wt]	1.39	2.15
TGVHVELQIAASIMHYISSP [peptide CL08NR]	1.6	–
TGAAVELQINRSIMHYISSP [peptide CL08VH]	1.17	–
